Read-outs that look alike come from different tables or passages of the source.
T1: cyno TfR extracellular domain (analogous construct to human TfR ecd) (cynomolgus monkey, UniProt Q5RDH6 87-760 (Pongo abelii entry))
T1 construct: also called cynoTfR ecd
T1 chain: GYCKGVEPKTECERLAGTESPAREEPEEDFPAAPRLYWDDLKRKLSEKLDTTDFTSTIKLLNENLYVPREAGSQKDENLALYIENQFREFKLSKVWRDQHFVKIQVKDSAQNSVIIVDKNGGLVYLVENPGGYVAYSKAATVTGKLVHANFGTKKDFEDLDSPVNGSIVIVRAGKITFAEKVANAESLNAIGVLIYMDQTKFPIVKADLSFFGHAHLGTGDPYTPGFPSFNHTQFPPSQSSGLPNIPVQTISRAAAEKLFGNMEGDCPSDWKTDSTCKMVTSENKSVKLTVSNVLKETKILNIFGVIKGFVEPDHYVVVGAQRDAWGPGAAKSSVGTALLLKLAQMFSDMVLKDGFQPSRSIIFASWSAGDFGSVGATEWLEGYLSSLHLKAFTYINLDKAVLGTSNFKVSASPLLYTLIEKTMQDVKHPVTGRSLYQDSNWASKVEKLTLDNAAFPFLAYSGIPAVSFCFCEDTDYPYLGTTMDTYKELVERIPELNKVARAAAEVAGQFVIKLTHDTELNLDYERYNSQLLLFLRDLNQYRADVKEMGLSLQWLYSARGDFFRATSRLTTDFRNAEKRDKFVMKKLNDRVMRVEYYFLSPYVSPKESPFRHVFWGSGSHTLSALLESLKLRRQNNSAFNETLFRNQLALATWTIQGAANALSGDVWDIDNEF


Legend:
[1] = target: T1, cyno TfR extracellular domain …; assay: SPR, IgG;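 further: His-tagged TfR captured via immobilized anti-His antibody on a CM5 chip, antibody injected in 3-fold dilution series by single cycle kinetics, 1:1 Langmuir or steady-state fit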
[2] = target: T2, human TfR extracellular domain with N-terminal His tag (human, UniProt P02786 89-760); assay: SPR, IgG;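 further: His-tagged TfR captured via immobilized anti-His antibody on a CM5 chip, antibody injected in 3-fold dilution series by single cycle kinetics, 1:1 Langmuir or steady-state fit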
T2 construct: Biotinylated in some assays; also called huTfR; HuTfR

[3] = target: T1, cyno TfR extracellular domain …; assay: SPR, IgG;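 further: His-tagged TfR captured via immobilized anti-His antibody on a CM5 chip, antibody injected in 3-fold dilution series by single cycle kinetics, 1:1 Langmuir or steady-state fit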
Experimental: (§1) Antibody affinities were measured using surface plasmon resonance (“SPR”) (Biacore™, GE Healthcare). Anti-His antibody (Qiagen) was coupled onto four different flow cells of a BIACORE™ CM5 sensor chip (Biacore, Inc., Piscataway, N.J.) at between 6000 and 8000 RU. Immobilization was achieved by random coupling through amino groups using a protocol provided by the manufacturer. 10×HBS-P (Biacore, Inc., Piscataway, N.J.) was diluted in water and served as the dilution and running buffer. Purified human or cyno TfR was captured, followed by a 3-fold dilution series of IgG or Fab that was injected at a flow rate of 30 ml/min using the single cycle kinetics method. Affinity constants were determined using a simple 1:1 Langmuir binding model or using a steady state model when kₒₙ or koff was beyond the detection limit. The equilibrium dissociation constant (KD) was calculated as the ratio of association rate constant (kₒₙ) and dissociation rate constant (koff).
(§2) In both cases, the SPR experiments were performed as described above.

[4] = target: T2, human TfR extracellular domain with …; assay: SPR, IgG; remark: listed apart in the source;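 further: His-tagged TfR captured via immobilized anti-His antibody on a CM5 chip, antibody injected in 3-fold dilution series by single cycle kinetics, 1:1 Langmuir or steady-state fit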
Experimental: as §1, §2

[5] = target: T3, human BACE1 (R&D Systems) (human, UniProt P56817); assay: SPR (Biacore)
T3 construct: recombinant, commercial (R&D Systems)
Experimental: Binding affinities of certain anti-BACE1 IgGs were measured by surface plasmon resonance (SRP) using a BIAcore™-T100 instrument. […] Association rates (kon) and dissociation rates (koff) were calculated using a simple one-to-one Langmuir binding model (BIAcore Evaluation Software version 3.2). The equilibrium dissociation constant (KD) was calculated as the ratio koff/kon.

[6] = target: BACE1 in primary mouse cortical neurons (mouse, UniProt P56818 46-501); assay: cell-based or functional assay
human BACE1 ECD [7] = target: T4, human BACE1 ECD; assay: Octet, pH 5.0;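 further: antibodies captured on anti-human capture sensor tips, dissociation monitored in PBS with BSA buffer, kinetics fitted with a one-to-one binding model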
T4 construct: analyte of the Octet assay (200 nM) and enzyme of the first short substrate assay; also called human BACE1 extracellular domain
Experimental: (§3) Anti-BACE1 antibodies were loaded onto anti-human capture (AHC) sensors (tips) followed by 60 seconds baseline in assay buffer. […] Tips were transferred to assay buffer for 5 minutes, 30 minutes, or 120 minutes depending on the off-rate, for off-rate measurement. Assay buffer was either PBS+0.1% BSA, pH 7.5; or PBS+0.1% BSA, pH 5.0. Kinetics were analyzed using a 1:1 binding model.

murine BACE1 ECD [8] = target: T5, murine BACE1 ECD; assay: Octet, pH 5.0;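 further: antibodies captured on anti-human capture sensor tips, dissociation monitored in PBS with BSA buffer, kinetics fitted with a one-to-one binding model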
T5 construct: analyte of the Octet assay (200 nM) and enzyme of the first short substrate assay
Experimental: as §3

human BACE1 ECD [9] = target: T4, human BACE1 ECD; assay: Octet, pH 7.5;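 further: antibodies captured on anti-human capture sensor tips, dissociation monitored in PBS with BSA, Kd obtained from kinetic fit to a one-to-one binding model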
Experimental: as §3

murine BACE1 ECD [10] = target: T5, murine BACE1 ECD; assay: Octet, pH 7.5;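 further: antibodies captured on anti-human capture sensor tips, dissociation monitored in PBS with BSA, Kd obtained from kinetic fit to a one-to-one binding model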
Experimental: as §3

T5 sequence (single chain, as listed by the source limits assumed): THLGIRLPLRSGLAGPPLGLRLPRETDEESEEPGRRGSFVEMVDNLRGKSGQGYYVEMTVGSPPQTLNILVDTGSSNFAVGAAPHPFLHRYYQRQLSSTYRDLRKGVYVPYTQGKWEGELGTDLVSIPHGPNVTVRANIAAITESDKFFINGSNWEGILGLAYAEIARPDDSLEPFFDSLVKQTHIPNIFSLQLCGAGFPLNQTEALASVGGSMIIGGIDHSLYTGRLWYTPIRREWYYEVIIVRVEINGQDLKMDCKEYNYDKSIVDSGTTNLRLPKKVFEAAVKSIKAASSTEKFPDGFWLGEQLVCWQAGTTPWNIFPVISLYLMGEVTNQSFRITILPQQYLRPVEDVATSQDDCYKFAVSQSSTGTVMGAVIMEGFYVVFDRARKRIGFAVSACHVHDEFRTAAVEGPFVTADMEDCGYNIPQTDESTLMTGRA
T2 sequence (P02786 89-760 G142S): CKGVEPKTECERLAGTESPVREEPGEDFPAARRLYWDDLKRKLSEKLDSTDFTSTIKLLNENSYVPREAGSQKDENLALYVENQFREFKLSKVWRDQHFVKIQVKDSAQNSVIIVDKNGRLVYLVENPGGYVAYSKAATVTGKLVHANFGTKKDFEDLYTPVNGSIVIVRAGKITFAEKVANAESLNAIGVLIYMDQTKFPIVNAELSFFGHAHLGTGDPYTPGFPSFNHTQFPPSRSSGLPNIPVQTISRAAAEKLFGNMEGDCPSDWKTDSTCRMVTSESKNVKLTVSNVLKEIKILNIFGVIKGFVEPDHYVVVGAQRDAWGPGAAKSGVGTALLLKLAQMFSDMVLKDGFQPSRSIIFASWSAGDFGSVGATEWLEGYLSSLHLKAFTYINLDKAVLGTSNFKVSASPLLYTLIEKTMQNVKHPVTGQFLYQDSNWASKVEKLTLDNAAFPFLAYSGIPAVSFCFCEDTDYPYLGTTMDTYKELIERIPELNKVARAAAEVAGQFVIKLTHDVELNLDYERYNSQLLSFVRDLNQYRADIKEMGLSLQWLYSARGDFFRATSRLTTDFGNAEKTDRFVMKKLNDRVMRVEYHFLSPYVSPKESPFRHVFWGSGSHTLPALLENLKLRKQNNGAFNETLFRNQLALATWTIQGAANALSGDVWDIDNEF
Sequence of BACE1 in primary mouse cortical neurons (P56818 46-501): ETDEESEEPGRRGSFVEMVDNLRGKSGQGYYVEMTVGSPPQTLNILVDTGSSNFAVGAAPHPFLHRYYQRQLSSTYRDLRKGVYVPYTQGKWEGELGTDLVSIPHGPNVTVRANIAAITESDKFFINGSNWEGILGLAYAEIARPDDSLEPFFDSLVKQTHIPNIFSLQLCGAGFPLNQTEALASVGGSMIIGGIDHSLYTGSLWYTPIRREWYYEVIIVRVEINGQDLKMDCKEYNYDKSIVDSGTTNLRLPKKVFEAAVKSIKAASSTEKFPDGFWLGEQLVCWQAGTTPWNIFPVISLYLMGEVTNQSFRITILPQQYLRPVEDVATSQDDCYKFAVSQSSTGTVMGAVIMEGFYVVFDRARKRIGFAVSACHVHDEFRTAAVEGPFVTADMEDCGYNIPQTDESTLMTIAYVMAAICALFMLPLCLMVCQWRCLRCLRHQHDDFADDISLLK
T4 sequence (single chain, as listed by the source limits assumed): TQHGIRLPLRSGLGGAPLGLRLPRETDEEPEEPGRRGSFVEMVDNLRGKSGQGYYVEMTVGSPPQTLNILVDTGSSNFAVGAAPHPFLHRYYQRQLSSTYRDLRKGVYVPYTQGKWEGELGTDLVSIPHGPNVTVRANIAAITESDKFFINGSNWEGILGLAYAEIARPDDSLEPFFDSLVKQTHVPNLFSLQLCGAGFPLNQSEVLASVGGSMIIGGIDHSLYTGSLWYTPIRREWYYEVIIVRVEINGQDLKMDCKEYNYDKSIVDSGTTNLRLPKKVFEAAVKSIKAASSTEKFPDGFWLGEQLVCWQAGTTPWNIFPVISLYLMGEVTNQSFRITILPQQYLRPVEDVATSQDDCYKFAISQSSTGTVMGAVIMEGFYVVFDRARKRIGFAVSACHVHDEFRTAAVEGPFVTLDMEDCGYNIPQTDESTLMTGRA
T3 sequence (P56817 22-457 limits assumed): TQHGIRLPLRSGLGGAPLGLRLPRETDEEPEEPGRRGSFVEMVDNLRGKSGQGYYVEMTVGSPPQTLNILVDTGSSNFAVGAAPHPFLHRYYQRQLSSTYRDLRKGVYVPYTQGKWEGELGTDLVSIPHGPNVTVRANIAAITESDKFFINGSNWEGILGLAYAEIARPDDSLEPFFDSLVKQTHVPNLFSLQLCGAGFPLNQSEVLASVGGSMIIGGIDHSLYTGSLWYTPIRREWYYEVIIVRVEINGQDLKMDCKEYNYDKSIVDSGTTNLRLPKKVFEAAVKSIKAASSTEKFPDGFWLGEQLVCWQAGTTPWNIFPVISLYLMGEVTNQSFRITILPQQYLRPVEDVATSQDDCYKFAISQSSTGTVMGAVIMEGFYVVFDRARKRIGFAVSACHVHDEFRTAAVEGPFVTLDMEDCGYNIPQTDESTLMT

| Binder | Kd [3] | Kd [4] | other results |
| --- | --- | --- | --- |
| hu7A4.v3 (antibody, V domains shown, IgG) VH: EVQLVQSGAEVKKPGASVKVSCKASGYTFTDYAMHWVRQAPGQGLEWMGGISTYFGRTNYNQKFKGRVTMTVDTSISTAYMELSRLRSDDTAVYYCARGLSGNYVMDYWGQGTTVTVSS VL: DIVMTQSPDSLAVSLGERATINCRASESVDSYGNSFMHWYQQKPGQPPKLLIYRASNLESGVPDRFSGSGSGTDFTLTISSLQAEDVAVYYCQQSNEGPPTFGQGTKLEIK | – | – | Kd [1]: 2.9 nM; Kd [2]: 0.543 nM |
| hu7A4.v4 (antibody, V domains shown, IgG) VH: EVQLVQSGAEVKKPGASVKVSCKGSGYTFTDYAMHWVRQAPGQGLEWMGGISTYFGRTNYNQKFKGRVTMTVDTSISTAYMELSRLRSDDTAVYYCARGLSGNYVMDYWGQGTTVTVSS VL: DIVMTQSPDSLAVSLGERATINCRASESVDSYGNSFMHWYQQKPGQPPKLLIYRASNLESGVPDRFSGSGSGTDFTLTISSLQAEDVAVYYCQQSNEGPPTFGQGTKLEIK | – | – | Kd [1]: 3.83 nM; Kd [2]: 0.612 nM |
| hu7A4.v7 (antibody, V domains shown, IgG) VH: EVQLVQSGAEVKKPGASVKVSCKASGYTFTDYAMHWVRQAPGQGLEWMGGISTYFGRTNYNQKFKGRVTMTVDTSISTAYMELSRLRSDDTAVYYCARGLSGNYVMDYWGQGTTVTVSS VL: DIVMTQSPDSLAVSLGERATINCRASESVDSYGNSFMHWYQQKPGQPPKLLIYRASNLESGIPDRFSGSGSGTDFTLTISSLQAEDVAVYYCQQSNEGPPTFGQGTKLEIK | 1.18 nM | 0.515 nM | – |
| hu7A4.v6 (antibody, V domains shown, IgG) VH: EVQLVQSGAEVKKPGASVKVSCKGSGYTFTDYAMHWVRQAPGQGLEWMGGISTYFGRTNYNQKFKGRVTMTRDTSISTAYMELSRLRSDDTAVYYCARGLSGNYVMDYWGQGTTVTVSS VL: DIVMTQSPDSLAVSLGERATINCRASESVDSYGNSFMHWYQQKPGQPPKLLIYRASNLESGIPDRFSGSGSGTDFTLTISSLQAEDVAVYYCQQSNEGPPTFGQGTKLEIK | – | – | Kd [1]: 1.06 nM; Kd [2]: 0.26 nM |
| hu7A4.v9 (antibody, V domains shown, IgG) VH: EVQLVQSGAEVKKPGASVKVSCKASGYTFTDYAMHWVRQAPGQGLEWMGGISTYFGRTNYNQKFKGRVTMTRDTSISTAYMELSRLRSDDTAVYYCARGLSGNYVMDYWGQGTTVTVSS VL: DIVMTQSPDSLAVSLGERATINCRASESVDSYGNSFMHWYQQKPGQPPKLLIYRASNLESGVPDRFSGSGSRTDFTLTISSLQAEDVAVYYCQQSNEGPPTFGQGTKLEIK | 0.428 nM | 0.119 nM | – |
| hu7A4.v8 (antibody, V domains shown, IgG) VH: EVQLVQSGAEVKKPGASVKVSCKGSGYTFTDYAMHWVRQAPGQGLEWMGGISTYFGRTNYNQKFKGRVTMTVDTSISTAYMELSRLRSDDTAVYYCARGLSGNYVMDYWGQGTTVTVSS VL: DIVMTQSPDSLAVSLGERATINCRASESVDSYGNSFMHWYQQKPGQPPKLLIYRASNLESGIPDRFSGSGSGTDFTLTISSLQAEDVAVYYCQQSNEGPPTFGQGTKLEIK | – | 1.29 nM | – |
| 6270 (antibody, V domains shown, anti-BACE1 IgG) VH: QVQLVQSGAEVKKPGSSVKVSCKASGGTFSGYGISWVRQAPGQGLEWMGNIIPGFGTANYAQKFQGRVTITADESTSTAYMELSSLRSEDTAVYYCARSGGTKYGMLDVWGQGTMVTVSS VL: EIVMTQSPATLSVSPGERATLSCRASQSVSSNLAWYQQKPGQAPRLLIYGASTRATGIPARFSGSGSGTEFTLTISSLQSEDFAVYYCQQLLLWPPRTFGGGTKVEIK | – | – | Kd [5]: 4.64 nM; IC50, Abeta x-40 in mouse cortical neurons [6]: 4.48 nM; maximal % inhibition of Abeta x-40 [6]: 85%; Kd (human BACE1 ECD [7]): < 0.29 nM; Kd (murine BACE1 ECD [8]): < 0.41 nM; Kd (human BACE1 ECD [9]): < 0.29 nM; Kd (murine BACE1 ECD [10]): < 0.4 nM |
| 6274 (antibody, V domains shown, anti-BACE1 IgG) VH: QVQLVQSGAEVKKPGSSVKVSCKASGGTFSGYGISWVRQAPGQGLEWMGNIIPGFGTANYAQKFQGRVTITADESTSTAYMELSSLRSEDTAVYYCARSGGTKYGMLDVWGQGTMVTVSS VL: EIVMTQSPATLSVSPGERATLSCRASQSVSSHLAWYQQKPGQAPRLLIYGASTRATGIPARFSGSGSGTEFTLTISSLQSEDFAVYYCQQLILWPPRTFGGGTKVEIK | – | – | Kd [5]: 4.18 nM; IC50, Abeta x-40 in mouse cortical neurons [6]: 4.82 nM; maximal % inhibition of Abeta x-40 [6]: 85%; Kd (human BACE1 ECD [7]): 0.53 nM; Kd (murine BACE1 ECD [8]): 0.76 nM; Kd (human BACE1 ECD [9]): < 0.37 nM; Kd (murine BACE1 ECD [10]): < 0.37 nM |

Second part, led by results:

| Kd [3] | Kd [4] | Binder | other results |
| --- | --- | --- | --- |
| 15.7 nM | 1.19 nM | hu7A4.v14 (antibody, V domains shown, IgG) VH: EVQLVQSGAEVKKPGASVKVSCKGSGYTFTDYAMHWVRQAPGQGLEWMGGISTYFGRTNYNQKFKGRVTMTVDTSISTAYMELSRLRSDDTAVYYCARGLSGNYVMDYWGQGTTVTVSS VL: DIVMTQSPDSLAVSLGERATINCRASESVDSYGNSFMHWYQQKPGQPPKLLIYRASNLESGIPDRFSGSGSGTDFTLTISSLQAEDVAVYYCQQSNEAPPTFGQGTKLEIK | – |
| 0.505 nM | 0.143 nM | hu7A4.v10 (antibody, V domains shown, IgG) VH: EVQLVQSGAEVKKPGASVKVSCKGSGYTFTDYAMHWVRQAPGQGLEWMGGISTYFGRTNYNQKFKGRVTMTRDTSISTAYMELSRLRSDDTAVYYCARGLSGNYVMDYWGQGTTVTVSS VL: DIVMTQSPDSLAVSLGERATINCRASESVDSYGNSFMHWYQQKPGQPPKLLIYRASNLESGVPDRFSGSGSRTDFTLTISSLQAEDVAVYYCQQSNEGPPTFGQGTKLEIK | – |
| 0.943 nM | 0.156 nM | hu7A4.v11 (antibody, V domains shown, IgG) VH: EVQLVQSGAEVKKPGASVKVSCKASGYTFTDYAMHWVRQAPGQGLEWMGGISTYFGRTNYNQKFKGRVTMTVDTSISTAYMELSRLRSDDTAVYYCARGLSGNYVMDYWGQGTTVTVSS VL: DIVMTQSPDSLAVSLGERATINCRASESVDSYGNSFMHWYQQKPGQPPKLLIYRASNLESGVPDRFSGSGSRTDFTLTISSLQAEDVAVYYCQQSNEGPPTFGQGTKLEIK | – |
| 2.09 nM | 0.2 nM | hu7A4.v12 (antibody, V domains shown, IgG) VH: EVQLVQSGAEVKKPGASVKVSCKGSGYTFTDYAMHWVRQAPGQGLEWMGGISTYFGRTNYNQKFKGRVTMTVDTSISTAYMELSRLRSDDTAVYYCARGLSGNYVMDYWGQGTTVTVSS VL: DIVMTQSPDSLAVSLGERATINCRASESVDSYGNSFMHWYQQKPGQPPKLLIYRASNLESGVPDRFSGSGSRTDFTLTISSLQAEDVAVYYCQQSNEGPPTFGQGTKLEIK | – |
| 11.4 nM | 1.36 nM | hu7A4.v13 (antibody, V domains shown, IgG) VH: EVQLVQSGAEVKKPGASVKVSCKGSGYTFTDYAMHWVRQAPGQGLEWMGGISTYFGRTNYNQKFKGRVTMTVDTSISTAYMELSRLRSDDTAVYYCARGLSGNYVMDYWGQGTTVTVSS VL: DIVMTQSPDSLAVSLGERATINCRASESVDSYGNSFMHWYQQKPGQPPKLLIYRASNLESGVPDRFSGSGSGTDFTLTISSLQAEDVAVYYCQQSNEAPPTFGQGTKLEIK | – |
| 199 nM | 18.7 nM | hu16F6.v1 (antibody, V domains shown, IgG; HC 71 V, 78 F) VH: EVQLVESGPGLVKPSETLSLTCTVSGNSITSEYAWNWIRQPPGKGLEWIGYISYSGTTSYNPSLKSRVTISVDTSKNQFSLKLSSVTAADTAVYYCARYGYGNPATRYFDVWGQGTLVTVSS VL: DIQMTQSPSSLSASVGDRVTITCRASKSISKYLAWYQQKPGKAPKLLLYSGSTLQSGVPSRFSGSGSGTDYTLTISSLQPEDFATYYCQQHNEYPWTFGQGTKVEIK | – |
| 11 nM | 0.884 nM | hu16F6.v4 (antibody, V domains shown, IgG; HC 71 R, 78 L; also called 16F6.v4 IgG) VH: EVQLVESGPGLVKPSETLSLTCTVSGNSITSEYAWNWIRQPPGKGLEWIGYISYSGTTSYNPSLKSRVTISRDTSKNQLSLKLSSVTAADTAVYYCARYGYGNPATRYFDVWGQGTLVTVSS VL: DIQMTQSPSSLSASVGDRVTITCRASKSISKYLAWYQQKPGKTNKLLLYSGSTLQSGVPSRFSGSGSGTDYTLTISSLQPEDFATYYCQQHNEYPWTFGQGTKVEIK | – |
| 34.5 nM | 4.11 nM | hu16F6.v3 (antibody, V domains shown, IgG; HC 71 V, 78 F) VH: EVQLVESGPGLVKPSETLSLTCTVSGNSITSEYAWNWIRQPPGKGLEWIGYISYSGTTSYNPSLKSRVTISVDTSKNQFSLKLSSVTAADTAVYYCARYGYGNPATRYFDVWGQGTLVTVSS VL: DIQMTQSPSSLSASVGDRVTITCRASKSISKYLAWYQQKPGKTNKLLLYSGSTLQSGVPSRFSGSGSGTDYTLTISSLQPEDFATYYCQQHNEYPWTFGQGTKVEIK | – |
